Values of other authors in US20250282866A1, “TREATMENT OF DISEASES RELATED TO ATP-BINDING CASSETTE TRANSPORTER 1 DYSFUNCTION USING TREM2 AGONISTS” (VIGIL NEUROSCIENCE, INC., priority 2020, published 2025).
Positions count from the first letter of the chain named. In names and notes the source's numbering stands.

T1: human TREM2 (Homo sapiens, UniProt Q9NZC2)
T1 sequence (Q9NZC2 19-230): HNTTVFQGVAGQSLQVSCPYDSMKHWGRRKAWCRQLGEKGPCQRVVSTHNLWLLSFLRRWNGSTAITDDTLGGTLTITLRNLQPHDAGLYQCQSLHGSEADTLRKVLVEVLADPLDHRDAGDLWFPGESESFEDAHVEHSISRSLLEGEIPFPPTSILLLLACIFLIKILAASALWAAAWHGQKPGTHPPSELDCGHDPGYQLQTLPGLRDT

B1: V50: 6E7 variant: VH T30G, I50V, F110L; VL L54R, F94L (antibody, V domains shown)
VH: EVQLVQSGAEVKKPGESLKISCKGSGYSFGSYWIAWVRQMPGKGLEWMGVIYPGDSDTRYSPSFQGQVTISADKSISTAYLQWSSLKASDTAMYFCARQRTFYYDSSDYLDYWGQGTLVTVSS
VL: DIQMTQSPSSVSASVGDRVTITCRASQGISSWLAWYQQKPGKAPKLLIYAASSRQNGVPSRFSGSGSGTDFTLTISSLQPEDFATYFCQQADSLPRTFGQGTKLEIK
B2: V52: 6E7 variant: VH T30E, Q99G; VL N56R, S93R (antibody, V domains shown)
VH: B1 VH with G30E, V50I, Q99G, L110F
VL: B1 VL with R54L, N56R, S93R, L94F
B3: V61: 6E7 variant: VH T30S, S61N, Q99G; VL Q55V, F94L (antibody, V domains shown)
VH: B1 VH with G30S, V50I, S61N, Q99G, L110F
VL: B1 VL with R54L, Q55V
B4: V63: 6E7 variant: VH T30R, Q99S; VL N56R, S93R (antibody, V domains shown)
VH: B1 VH with G30R, V50I, Q99S, L110F
VL: B1 VL with R54L, N56R, S93R, L94F
B5: V60: 6E7 variant: VH S28H, T58V, F110S; VL N56R, Q89G (antibody, V domains shown)
VH: B1 VH with S28H, G30T, V50I, T58V, L110S
VL: B1 VL with R54L, N56R, Q89G, L94F
B6: V51: 6E7 variant: VH T58V, Q99G, Y112N; VL L54R (antibody, V domains shown)
VH: B1 VH with G30T, V50I, T58V, Q99G, L110F, Y112N
VL: B1 VL with L94F
B7: V62: 6E7 variant: VH T30G, S61A, D108G; VL N56R, Q89G (antibody, V domains shown)
VH: B1 VH with V50I, S61A, D108G, L110F
VL: B1 VL with R54L, N56R, Q89G, L94F

Biological target: T1, human TREM2
Settings: 1st screen; values printed without asterisk; concentration 110 nM or 10 nM (footnote a not given)

Binding Signal (fold over 6E7 Parental antibody) 1st screen 110 nM or 10 nM | Molecule
4.10 fold over 6E7 Parental antibod | B1
3.00 fold over 6E7 Parental antibod | B2
5.08 fold over 6E7 Parental antibod | B3
3.76 fold over 6E7 Parental antibod | B4
3.26 fold over 6E7 Parental antibod | B5
2.81 fold over 6E7 Parental antibod | B6
2.49 fold over 6E7 Parental antibod | B7

Same assay, conditions: 2nd screen, 2 nM

Binding Signal (fold over 6E7 Parental antibody) 2nd screen 2 nM | Molecule
3.39 fold over 6E7 Parental antibod | B1
1.78 fold over 6E7 Parental antibod | B2
3.63 fold over 6E7 Parental antibod | B3
4.91 fold over 6E7 Parental antibod | B4
3.35 fold over 6E7 Parental antibod | B5
1.83 fold over 6E7 Parental antibod | B6
1.87 fold over 6E7 Parental antibod | B7

Same assay, conditions: 2nd screen, 10 nM

Binding Signal (fold over 6E7 Parental antibody) 2nd screen 10 nM | Molecule
4.16 fold over 6E7 Parental antibod | B1
3.09 fold over 6E7 Parental antibod | B2
5.22 fold over 6E7 Parental antibod | B3
3.71 fold over 6E7 Parental antibod | B4
3.63 fold over 6E7 Parental antibod | B5
3.18 fold over 6E7 Parental antibod | B6
2.89 fold over 6E7 Parental antibod | B7
